Results as given in the DeepSol protein solubility set.

Assay: soluble on expression in E. coli; label from the status in PepcDB or PDB records

| Sequence | soluble on expression in E. coli |
| --- | --- |
| MAHHHHHHMSPVLVPTACEDWSLNIDDESAKRFWWNNTYSITLWEETLNIEQQAEKITDGDVWSKFIDLQLRCAFKICSICHSPEGNADMKICCYCGNTVHENCSEPAAPEQIMWKPANLAYVEHMRACFQCQAVNYKEPLAPQSPSEWDNARRAAKRALTISDEYPPATVERIQKLLQRAETTSNDAVLLSELKSLVQSYFQSPQSLQFLRKERVASKGGGIGVVAARKIPAFSIIGVYPGYLDFMSGEQAKCGRPVPKYALMEYNCANYFNEVFVELQTTFTPFINEPNVDEKSNCAWIQEPHRKNGRLSVICVRDIQEGEELTIGYGPIYPRTYPYCYDAYACHQIEGHTTHPCYSLWHWPTLQEADARFVCHIGYIERDDCYVLWKNET | soluble |
| MAHHHHHHMSRCNVAACFFPQQYGCETECGSESLLRAVLGDNANRVDSVMNHCTPHCVAAAIARCIREGPNFPHHLHVIAGVGRFKEIMIACLIDMIPQPLFSIDVPLQCMMFASEEGSVVCKLFDSESMPSLLSTANDMEQIFLVSLRHERRMVTIVAVEQLSTSLVASMLGSVCSNIWVLLSGLHTTEREMSLLNEAMAIRDAVREFSSAVGAVSTELHVEEESSAHATPPVAVEVVHPSAPSLKGVEDNDTAVVVSSAEAETVSDTQSVARRLEESQCEVNQLRKKLEEAEDTIHRFRAAERRAEEEKKNLSLAESLAATTPVATSERAESLFCEGTGGLDSQNSKGNENWVGERTVVATQRELSAMQAKLSELQRCLVETSEGNLGRVREFQCRELEWQRELRRRTEERDVALQECERLRGATPCHGSQEKVFSRAVETPHAHQEQELDNLLSRIRSITAAHGNAAHSEFPMLFSSQRSAGGAGQPLSPRGDYRRFASLERYRS | not soluble |
| MAHHHHHHMSRVSVLAGQKPKPKESFKFLRRDEGRLSYSAATAESPSKNAANGADGANINRERRDSKALREAIAYDMRNAKSHDPLGEVVVAVPRKAPPPTRAVSAPPPNTNASSGTEKPAAGAPPQRRQPARAANPKKPEWVDPEIPPSPLLQAPTHTVVERPADNYFETSYSDSHSGGAAALSSGIGRSVSRGSDTNGADLGRYGGLTPRSAAMGAPRYASLKYEESSAAPLSGQDRNYFRRPLYTRDPALGSDAHSPAGSRVREEDELIASLEQEIKAAQKERNHYADARQQLDREKQRFESYRYGARQQMEDERADAGDRRSREQRDAQKDLRATEERFKNVSALLVAERETNRRLSQENDSLRTQLEDLTSTMREAHRIHKAEVARMRRDIDSLTRRNAELLAMAKEQQLQCLEGASASPSTRQSSSSPFSVSLDPSAQRASSASCEGGYDEDNDAAAVGERRASRAAPLAVMDFTPRASSREAAAREKRNRQMQNRMQAEEQAMEERKRHREQYIAGRKREEQEEKTRHRVAVDAAAAATACRRSEEDDLRKAATAAEKVVEERKMSGHPARTPRMQSGALSVKRRPSVSAVHAPVAPKRHHVPTREDLIGDMEEFPTEKFCDDDVVSQTALGDNSNKKEVLYRSGKREIHYANGTVKVVLPSGHTTLRFTNGDVKCTFPSGKSTYWYDAAQTMHTQMPDGVQAFEFRSTGQTEKHLPDGSKEILYPDGIYKMVRPDGSDETFYPDGEPMEE | soluble |
| MAHHHHHHMSSLDSVREDILDVFHIFDEDGSGSITMQELKRAIYTITGIRISRIDLSILVRTCKEEMLKESARKSEAGANVAGKAGEKLWTPEPESEVNTVDPQLFAAVVLKTLNRRTQEQELLFTFRLLEDKDYPGFITKDSLKRASADIDEHLTDQEVNEMFDKLVTGVSAAAIDFVTFSSLMETLRKSI | soluble |
| MAHHHHHHMSSLKYIENSINSNIRVDGRTLSTYRTIEINKNILVSADGSSSVMNEENNVICGIKLSLLTPSLDAPDEGVINLQIDCPASVVANRIKKDHLQIMSSIIYDLCLKNNIDRKKMCILPSTFVWGVDINVMVLNAGGGLLDIISMAIYVALKDTVVPVVKPKKKIDESNTFHHTKCADYQVEIVENQKTNFPYENVPICVSIGEINNKYVYDMSKVEEELVENIFVVAVTSSGKCVAFHKLYGISMEIASILNMTENSSRISHHLFEKINEAIAKIETRSVLV | not soluble |
| MAHHHHHHMSSQAQQRAPAYAPRDTHAERLAAADREAAARRDSSTNWTWYPEYHLAPYMGWMNDPTGLVHFRDHYHVFYQYHPYSAEWGPMHWGHMTSEDLVHWQHEKVALAPGDACDRNGCFSGTAVVHEDRMYVFYTGHFALDAATPSNPDAIFEQQCVAVSSDGVNFEKLGAVVRPPPGYVHFRDPKVWQQDGRWWMVCGARDVTKDLGQLLLFTTEDLLKWDDTNWQVLGMTEDKNVFMWECPDYFTIGSREDMKLLLFCPQGKKASEYNYRNRFQNGYTVGQWMPGGPWTVQREFRELDRGHDFYAAQTFLAADGQRRMLMAWCNMWESPMPTKQYGWSGCLTLPRELSYNEATGQLCMLPARELVGLRTPEMMIVPSLLVENNSDAQILENCTAYELDIAFNMETSTAEKYGLWLGSGAELYVDAQSKRLVLNRHYPQHMLSGYRSCELPIGLLLQLHVFIDRSSIEVFVNNGEATFSSRVFPDEGDRALRVFSVNGTADMVGGTMWKLKATVRH | not soluble |
| MAHHHHHHMSTDIPVNDNETNSSFKLKSEINSIENELKNWFLKRRLNMEINYSLKKLFDSYNFVGLSINNNINLKDKMLWYDIVNGKPELEDTLSMDAKEYKADQYSYLWNKSTTIDNACRLVGSIYFRCLKNNFQLKKSEREHKCIQNFINFNNCRNALKLQQANNIKDSLIKQNMEDNIAKALFERRSLLLDMLEDFK | not soluble |
| MAHHHHHHMSTSYSVTTYMTTTYVNCEDVSGSDSEYSEYDLVNEQMQDFLLDSEDTSDGDADVEDILGFGAVFMGGLMPTRSMDAHQACAWRRTTKPNRRRIAKKSESCSSLSNAARLTASSSTTMLSDLDTVVREAVVTGGAAQRRGTRKQRRAMASGERRWLVPPLSAVSVESTDGGNDGRRQLPWFTVVFDLDETLVGARYGPIHLRPHVGELLRSLHRLPVEIIVWTAGTAHYVNPILHAIGQACGRRQWFHHIISRHKRWYRDTNVSVKDLRQLGRPLDRLVMVENNPISALPQPSLCVLLEDYLQPNAADESLLVLKGLLERLALQYERAARTSSATGTCEQASEEECPAQRHTRSPRNTLRDATATRTTALPSLELLVRDDAALQLVEFRMEDILKEDGVPMLQQAEMRELVGGADTLRCLCLCYTPPLLPSSTAVAPQGTAALMSCVSMAMRSYGSVNPLRPL | not soluble |
| MAHHHHHHMSTYDKSDQIGYDETDHTLNAELEEMMARTPPEVQRHLQHRIHDGILQRMKEETTRKCITFIQKYEQCVNSQKPYNMKLCYPHRDAMNGCAQEVNREENYQRYRIMYLRGELLKYHEKRTAGKMEAFKVRAPDAIRAWKHDYAPKYMHIMEDLGVAPLGTAAGTAEESTNSK | not soluble |
| MAHHHHHHMSVAPKRTAELLWLEQQRARQYEQHRKRVEQQKPCVDNKTPRNLSLSNKRALMEQERRKCIDEENRRLVVNMSAIMERGGGIDNKEPWRRTNGPRDAEIRRRREQQKLAEENLKLLHRLENVKPVYRLEKWEMERDENEILVDRISRYPYIPMNRRKGVGE | soluble |
| MAHHHHHHMSVTASAAAAAAAAAASPRPPSSALYTERLFYAVLKQGNPSEARVEALAALALRHLPKSAETWAALRKALMEQSDLDGAPNRTLWYVLDALIKHAPHVFVPLVAPRLLEYTIQQLPWELAGHRGQTLLWFEALVLSWEKVLPQRLYSAVRQHAVQSRSGAELHDLLEAAENSVDDGTSASPADLQQLRDAWDAVQYMGEQEAGKSVFHARLIAAAVVVADEDGNSSLSPSPPVSGLYATPTGHNGRTAGAGTSGADIANTQQQQQQQEEDEYTPDFIEGAKPRELPKLDLPKLKRRREGRRRPREEDLGM | soluble |
| MAHHHHHHMTESRWITEALVQFSASPIWLTPIDNFVDDNCCIFSNESEMQLEYTVAHNKFKKLIDSLLTCFLMELGVSMETAVEALQSSLAVSVQTSEGLSEQQAAKKLLKQIFNADNFSHFHTMMVKRNLELDILANAALSSDGVCGNGGAALSTEEVEKETRARARVQRAIDVNGDVSEDDALRRAIEVSLQDGTAQQQVQAYRKACIQEDANLQLTAVEHQANSEKAQLEAVLQTQSAQNLPEGEHFRQNHVEPINKQKESQLQPIRAHAMSGKGQKGCDEAEPQKANFNSPESPCPLPALQVPAAASAPVAAPVSVPALPSIGQRQAALPSIPSTITASVLKSAPSAPAHQAHGTAVSATPAPTPIPTKEELEKRAQYMREQREKLLARNRASRQEQLNTFLQNNSSSTTTSSSAALAATGAAQSVTVEIARRLRGDLIGEARKSSG | soluble |
| MAHHHHHHMTNFETFQQFYVRDWTPKARPVDAAASVVAPCDGQVLAVNANVESTSLVQVKGLTYGMRSLLQDTPPPLNTDTHRRVAVVLHMRNKDFHHVIAPLSFACEKSIYVPGSLLPTTSAGYHWIPAVLALNERLILQGRSSDKARLPVYMALVGSTLTGRITLYMDKRVRTNYLDPPAYAVHSPYASKPVVARGERLATFNWGSSVVLVMDVPKSCKPLKRPGDVVKAGEALFQF | not soluble |
| MAHHHHHHMTNKSYPTSLVTTPKVRRKSSEHGTFHNSSPKKKNRDIRDFFTANKCNESVEKSWNNNINKRSYHDSPMNDSPNTTLKFLSKKYKTEIN | soluble |
| MAHHHHHHMTPTSAITTSAPATATTAEQTPLPPEQTSMFDAPGTPTPAVSAASARATGAQDSSTLMEGAKTETTKQNLAMKGLDRWMKMQLPADWMECIRQNLQLDKHGQPMHAVTEMKDAIPLLITPLTGDVKFFPYFVCSMDVAVRYHYVIQNERDPDTTAVIDDLQRRFGNSGRLLVVRNRYNRGYSGSMNQAFEWALKERTAEEVPWVFACGVDAIFEPGLLAKMIEVVQQNTRGDAAMLAALRAEVELEERLVREGNYSYYERWAPRGRPLKVLRSGYPGVPLNVRTAPLLPDRIRYTVADENRESGIVRPAELRTRFFGNYVATVTPVPDALGTIAVTRLALSAVGYFDENYFPAYMDDIDLRWRHFAYGFGALHGERNGPVTRWHHYNAANLRGSPFVDPDLEKYGTEDNYSRRAFLSYIRRSKGIYDKLKYGPRDMDGVWRQAAQKAEFKYSSFNVSHYPADTWVLDEDARGCMFHHTYNYKTQNWSRPSDCSYNPRTLEESGILGVDQLASYRSMLAEKAFAYQ | not soluble |
| MAHHHHHHMTSGYSSYAGASGSGHERFTRILVVGEASVGKTLLIRRLCDHIFGDTSITSTDEGSAPESPYQSQSAVADDDLGPEWGPTVGIAVDALKRSTTVLEDTVTMPNLAMSTPYDTAAVARYTAPSCSLHSGENGNYPHCSVYDTPCSTSGYGRSNSVLQYRGQGFVGSNTSFALLHQLTSASPPRRQTVLQTVEFHELGGTHGYRDVARLLLRNIHYDGVMFVYHRRSLTSTLYLKEWYRWIRSVFSASPDVGSHYGAEAKKPVKCSKKMPRFMLVGTQLPGDELPAAAAGLTKAAAETLHMASGAISDETLLDGNLEVKLRALQSPQTLTQRRGVRHALSKVFRRLAWPYHMWWCVSHPFFLLSKQYQEELGPRSRLGACGSRVVERFVWLFYQAEQALLYVMAVILFGPYQEAVVLGHSRPKQTLEEMLKDELCVSQAHVCRLESNISLQSSLDDMVAFFDILLRQDAPDEGR | not soluble |
| MAHHHHHHMVDRIEATLNRLIAFGPGTASYTDDAAFLQNVASAMEVAGEIPVLTEACMSLSVDLLENSSPQSAATHAVLTLLACCCMRDDNRELASRFGIFSLCVLLLRSSELLCKDTLLTIFDLIGTLCMSSASTRQMMRPCIPYVLGVMRTHPDCFQLCFSGAVVIGTLVMLDAANAELAAENDCVQILLTAFMRGHDKRKELLNRRRTSYSLRCQREEDESRRLCDNVIRWTEDALQKLVLAPSPVIDAKLEAADFGNYGDRVEVDELMWKLKFGRGKM | not soluble |
| MAHHHHHHMVELTEEEAMNFLNIALGEAEKSLQKELKEMPIFCLLINEEKKIISSSYNYTNESKNGSRHSELIAIDKYIYDGNYEQMKNLNLIKCYNNNENSIEKSIQDYFVSLDEKKNSELKINNYENINDKYMNEKYNKIQERINNLKKCCIVVTCEPCIMCVYALKLIGIKNIYFCCLNERFGGCGSVLSLHKKYEDINVHYIEHPECSEKSINLMKAFYKAGNPSAPEEKRKRPIS | not soluble |
